In article PMC3485041, “In Vitro Site Selection of a Consensus Binding Site for the Drosophila melanogaster Tbx20 Homolog Midline”:

T1: Midline T-box domain (MidTbx) (Drosophila melanogaster, UniProt Q8SYY8 171-393)
T1 sequence: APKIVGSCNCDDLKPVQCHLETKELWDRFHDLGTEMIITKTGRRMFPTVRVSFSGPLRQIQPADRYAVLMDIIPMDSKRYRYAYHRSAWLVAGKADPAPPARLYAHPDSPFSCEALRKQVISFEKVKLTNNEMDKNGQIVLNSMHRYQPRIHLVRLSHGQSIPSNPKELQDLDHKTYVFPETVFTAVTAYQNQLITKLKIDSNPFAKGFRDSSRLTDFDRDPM

B1: clone 57 (dsDNA)
DNA 1: CAGGTCAGTTCAGCGGATCCTGTCGACATGGGAGGCTGTTACGGCGCGAACGAGGCGAATTCAGTGCAACTGCAGC
DNA 2: GCTGCAGTTGCACTGAATTCGCCTCGTTCGCGCCGTAACAGCCTCCCATGTCGACAGGATCCGCTGAACTGACCTG
B2: clone 4 (dsDNA)
DNA 1: GCTGCAGTTGCACTGAATTCGCCTCCGTGCGTACGTGTCAATTCGTCAAGGCCGACAGGATCCGCTGAACTGACCTG
DNA 2: CAGGTCAGTTCAGCGGATCCTGTCGGCCTTGACGAATTGACACGTACGCACGGAGGCGAATTCAGTGCAACTGCAGC
B3: clone 74 (dsDNA)
DNA 1: CAGGTCAGTTCAGCGGATCCTGTCGCCTTAAGGTGCGGGCAGACAGGTGTGGAGGCGAATTCAGTGCAACTGCAGC
DNA 2: GCTGCAGTTGCACTGAATTCGCCTCCACACCTGTCTGCCCGCACCTTAAGGCGACAGGATCCGCTGAACTGACCTG
B4: clone 50 (dsDNA)
DNA 1: CAGGTCAGTTCAGCGGATCCTGTCGAGGTGTGGCACTGTGAAGTTCGCGAGGAGGCGAATTCAGTGCAACTGCAGC
DNA 2: GCTGCAGTTGCACTGAATTCGCCTCCTCGCGAACTTCACAGTGCCACACCTCGACAGGATCCGCTGAACTGACCTG
B5: clone 67 (dsDNA)
DNA 1: CAGGTCAGTTCAGCGGATCCTGTCGCTACGGAGGTGATTACACGCGAAATCGAGGCGAATTCAGTGCAACTGCAGC
DNA 2: GCTGCAGTTGCACTGAATTCGCCTCGATTTCGCGTGTAATCACCTCCGTAGCGACAGGATCCGCTGAACTGACCTG
B6: clone 2 (dsDNA)
DNA 1: GCTGCAGTTGCACTGAATTCGCCTCACCATCACACCAGCGAAGTGACAGTTCGACAGGATCCGCTGAACTGACCTG
DNA 2: CAGGTCAGTTCAGCGGATCCTGTCGAACTGTCACTTCGCTGGTGTGATGGTGAGGCGAATTCAGTGCAACTGCAGC
B7: clone 75 (dsDNA)
DNA 1: CAGGTCAGATCAGCGGATCCTGTCGCGACGCCTTGGGGGTGTCACGGCGCGGCAGGTCAGATCAGCGGATCCTGTCG
DNA 2: CGACAGGATCCGCTGATCTGACCTGCCGCGCCGTGACACCCCCAAGGCGTCGCGACAGGATCCGCTGATCTGACCTG
B8: clone 43 (dsDNA)
DNA 1: CAGGTCAGTTCAGCGGATCCTGTCGGGGGGCTGGTGCGAAAGTGTGTAGTGGCAGGTCAGTTCAGCGGATCCTGTCG
DNA 2: CGACAGGATCCGCTGAACTGACCTGCCACTACACACTTTCGCACCAGCCCCCCGACAGGATCCGCTGAACTGACCTG
B9: clone 42 (dsDNA)
DNA 1: CAGGTCAGTTCAGCGGATCCTGTCGGGTGTTGATGGTGTTAACGCGCGAGGGAGGCGAATTCAGTGCAACTGCAGC
DNA 2: GCTGCAGTTGCACTGAATTCGCCTCCCTCGCGCGTTAACACCATCAACACCCGACAGGATCCGCTGAACTGACCTG
B10: clone 72 (dsDNA)
DNA 1: GCTGCAGTTGCACTGAATTCGCCTCAGCGCCCAGTTGGTGTTAAGCCAGTCCGACAGGATCCGCTGAACTGACCTG
DNA 2: CAGGTCAGTTCAGCGGATCCTGTCGGACTGGCTTAACACCAACTGGGCGCTGAGGCGAATTCAGTGCAACTGCAGC
B11: mid.Liu (dsDNA)
DNA 1: GGAAGTAGGTCAAG
DNA 2: CTTGACCTACTTCC
B12: Tbx20.MacIndoe (dsDNA)
DNA 1: GGAGGTGTGAGGCGA
DNA 2: TCGCCTCACACCTCC
B13: mid.Najand (dsDNA)
DNA 1: CAAGGTGTCAAGGCG
DNA 2: CGCCTTGACACCTTG
B14: mid.Najand Region 2 (dsDNA)
DNA 1: CAAGGTGTCAAGGAA
DNA 2: TTCCTTGACACCTTG
B15: mid.Najand Region 1 (dsDNA)
DNA 1: CACCCCCCCAAGGCG
DNA 2: CGCCTTGGGGGGGTG
B16: T-site (Brachyury palindrome) (dsDNA)
DNA 1: AATTTCACACCTAGGTGTGAAATT
DNA 2: AATTTCACACCTAGGTGTGAAATT

What follows are binders tested against T1, Midline T-box domain (MidTbx) (assay: EMSA; 20 mM HEPES pH 7.9, 100 mM KCl, 0.2 mM EDTA, 0.2 mM EGTA, 20% glycerol, 0.1% NP40, 0.5 mM DTT, 10 mg/ml BSA, 8 ng/ul poly(dI-dC); room temperature 1 h; 15 fmol). Conditions: protein: recombinant; tags: C-terminal 6xHis (pET-21a); label: 5' biotin (primer F); blunt.

Binding result, binds:
B1
B2
B3
B4
B5
B6
B7
B8
B9
B10

Same assay, conditions: protein: recombinant; tags: C-terminal 6xHis (pET-21a); label: 5' biotin; blunt

Binding result, no binding:
B11
B15

Binding result, binds:
B12
B13
B14

Same assay, conditions: protein: recombinant; tags: C-terminal 6xHis (pET-21a); label: 5' biotin; blunt; self-complementary, 2 copies

Binding result, binds:
B16
